Measurements from patent publication US20240173425A1, “HUMAN CD33 ANTIBODIES AND GLUCOCORTICOID CONJUGATES” (Eli Lilly and Company, priority 2022, published 2024).

Target: human CD33 on the cell surface of human monocytes / myeloid cells (human) (UniProt P20138)
Test: cell-based or functional assay

Chain of human CD33 on the cell surface of human monocytes / myeloid cells (human) (P20138 18-364 limits assumed): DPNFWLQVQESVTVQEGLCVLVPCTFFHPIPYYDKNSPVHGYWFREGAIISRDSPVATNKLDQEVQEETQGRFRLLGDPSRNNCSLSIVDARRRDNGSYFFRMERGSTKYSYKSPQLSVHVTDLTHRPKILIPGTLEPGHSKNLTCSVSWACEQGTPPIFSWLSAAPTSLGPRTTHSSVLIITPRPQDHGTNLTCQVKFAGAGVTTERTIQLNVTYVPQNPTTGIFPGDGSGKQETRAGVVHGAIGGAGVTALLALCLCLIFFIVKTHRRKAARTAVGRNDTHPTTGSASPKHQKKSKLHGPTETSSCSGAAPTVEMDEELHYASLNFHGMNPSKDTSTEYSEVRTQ

% Internalization: 50.5%
Substance: Gemtuzumab (hIgG4PAA) (antibody)
